From IntAct's records for PubMed 11134025

B1: Protein kinase C-like 3 (Caenorhabditis elegans), Q19266 (parent)
chain: MSSPTSLEEDGDIKLKTRFQGQVVVLYARPPLILDDFFALLKDACKQHKKQDITVKWIDEDGDPISIDSQMELDEAVRCLNSSQEAELNIHVFVGKPELPGLPCQGEDKTVYRRGARRWKKIYLYNGHRFQAKRLNRRIQCFICHDYIWGIGRQGFRCVDCRLCVHKKCHRHVRTHCGQALQGPNIIPMAPASGSLKGARSNTSSSTTRSGGGIDNGAFHEHEIESPGSTSHDASRAMNGNGSSKWAVSLNDFRLLTVIGRGSYAKVVQAEHVSTRQIYAIKIIKKEMFNEDEDIDWVQTEKSVFEAASNYPFLVGLHSCFQTESRLFFVIEFVPGGDLMFHMQQQRKLPEEHARFYSGEIILALHFLHSRGIIYRDLKLDNVLIDAEGHIKLTDYGMCKENIKDGDLTSTFCGTPNYIAPEILRGDEYGFSVDWWALGVLMFEMMAGRSPFDIVGMQNSEENTEDYLFQIILERQIRIPRSLSVRASGILKGFLNKDPTERLGCKLDINEGLRDMKEHQFFRGFIDWEALEQKAVAPPYHPAVESDRDLTHFDHQFTDELPQLSPDNPDVIARIDQSEFDGFEYVNPLQMSREDSV
partner: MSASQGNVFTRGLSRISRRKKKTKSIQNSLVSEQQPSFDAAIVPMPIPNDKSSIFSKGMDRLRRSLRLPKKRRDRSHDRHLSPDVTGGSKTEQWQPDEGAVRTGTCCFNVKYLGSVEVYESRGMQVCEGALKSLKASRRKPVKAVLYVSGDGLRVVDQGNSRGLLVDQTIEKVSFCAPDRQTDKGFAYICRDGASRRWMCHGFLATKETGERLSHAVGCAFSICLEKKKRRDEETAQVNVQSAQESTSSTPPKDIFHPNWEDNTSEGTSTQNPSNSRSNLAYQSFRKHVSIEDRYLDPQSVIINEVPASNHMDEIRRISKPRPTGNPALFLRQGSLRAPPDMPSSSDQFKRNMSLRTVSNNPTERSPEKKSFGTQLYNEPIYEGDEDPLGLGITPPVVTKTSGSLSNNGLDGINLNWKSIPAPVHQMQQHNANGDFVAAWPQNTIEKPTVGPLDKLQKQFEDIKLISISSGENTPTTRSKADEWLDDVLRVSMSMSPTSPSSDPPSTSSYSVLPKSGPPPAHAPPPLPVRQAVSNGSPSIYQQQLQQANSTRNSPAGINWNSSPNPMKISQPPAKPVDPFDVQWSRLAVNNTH

Variants of: B1
Details: with num-1, Q9XTY6-1

effect of a mutation on the interaction	Variant
decreasing interaction	F219A
decreasing interaction	N216A
decreasing interaction	I214A
